# Like-named read-outs stand apart in the source and are kept apart here.
# T1: TROP2 (UniProt P09758 27-323, limits assumed)
# T1 sequence (looked up): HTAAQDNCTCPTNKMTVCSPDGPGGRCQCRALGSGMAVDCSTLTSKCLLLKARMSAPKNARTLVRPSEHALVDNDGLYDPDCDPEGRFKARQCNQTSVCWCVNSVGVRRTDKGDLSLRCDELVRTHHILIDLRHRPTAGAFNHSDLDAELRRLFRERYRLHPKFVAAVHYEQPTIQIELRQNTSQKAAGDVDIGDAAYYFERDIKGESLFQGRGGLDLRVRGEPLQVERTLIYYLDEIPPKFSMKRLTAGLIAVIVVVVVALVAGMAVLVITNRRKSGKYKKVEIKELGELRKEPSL
# T2: BCMA (UniProt Q02223 1-184, limits assumed)
# T2 sequence (looked up): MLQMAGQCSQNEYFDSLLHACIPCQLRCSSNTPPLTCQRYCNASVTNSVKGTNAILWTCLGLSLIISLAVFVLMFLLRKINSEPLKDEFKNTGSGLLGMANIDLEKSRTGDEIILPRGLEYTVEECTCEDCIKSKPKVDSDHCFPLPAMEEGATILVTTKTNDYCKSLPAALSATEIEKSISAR
# Assays:
# Assay in all cases: cell-based or functional assay
# TROP2 [1] = biological target: T1, TROP2
# TROP2 [2] = biological target: T1, TROP2; remark: listed apart in the source
# TROP2 [3] = biological target: T1, TROP2; remark: listed apart in the source
# TROP2 [4] = biological target: T1, TROP2; remark: listed apart in the source
# BCMA [5] = biological target: T2, BCMA
# BCMA [6] = biological target: T2, BCMA; remark: listed apart in the source
binder,measurement,setting,value
"ADC01 (Datopotamab conjugated to GGFG-Dxd) (antibody, human IgG1, kappa, V domains shown, linker-drug GGFG-Dxd on cysteines of reduced interchain disulfides; average DAR 3.73) VH: QVQLVQSGAEVKKPGASVKVSCKASGYTFTTAGMQWVRQAPGQGLEWMGWINTHSGVPKYAEDFKGRVTISADTSTSTAYLQLSSLKSEDTAVYYCARSGFGSSYWYFDVWGQGTLVTVSS VL: DIQMTQSPSSLSASVGDRVTITCKASQDVSTAVAWYQQKPGKAPKLLIYSASYRYTGVPSRFSGSGSGTDFTLTISSLQPEDFAVYYCQQHYITPLTFGQGTKLEIKR",A431 IC50/µg/mL (in vitro cell viability assay),TROP2 [1],0.11 µg/mL
"DXD (deruxtecan)-conjugated sacituzumab (hRS7-DXD) (antibody, human IgG1, kappa, V domains shown, deruxtecan (DXD) on cysteines of reduced interchain disulfides; label D4) VH: QVQLQQSGSELKKPGASVKVSCKASGYTFTNYGMNWVKQAPGQGLKWMGWINTYTGEPTYTDDFKGRFAFSLDTSVSTAYLQISSLKADDTAVYFCARGGFGSSYWYFDVWGQGSLVTVSS VL: DIQLTQSPSSLSASVGDRVSITCKASQDVSIAVAWYQQKPGKAPKLLIYSASYRYTGVPDRFSGSGSGTDFTLTISSLQPEDFAVYYCQQHYITPLTFGAGTKVEIKR","EC50(nM), inhibition of BxPC-3 cell proliferation",TROP2 [2],0.38 nM
same,"Relative activity (%), inhibition of BxPC-3 cell proliferation",TROP2 [2],100%
same,"EC50(nM), inhibition of BxPC-3 cell proliferation",TROP2 [3],0.156 nM
same,"Relative activity (%), inhibition of BxPC-3 cell proliferation",TROP2 [3],100%
same,"Relative activity (%), inhibition of BxPC-3 cell proliferation",TROP2 [4],100%
"ADC05 (hRS7 conjugated to CPD3) (antibody, human IgG1, kappa, V domains shown, linker-drug CPD3 on cysteines of reduced interchain disulfides; average DAR 3.99) VH: QVQLQQSGSELKKPGASVKVSCKASGYTFTNYGMNWVKQAPGQGLKWMGWINTYTGEPTYTDDFKGRFAFSLDTSVSTAYLQISSLKADDTAVYFCARGGFGSSYWYFDVWGQGSLVTVSS VL: DIQLTQSPSSLSASVGDRVSITCKASQDVSIAVAWYQQKPGKAPKLLIYSASYRYTGVPDRFSGSGSGTDFTLTISSLQPEDFAVYYCQQHYITPLTFGAGTKVEIKR",A431 IC50/µg/mL (in vitro cell viability assay),TROP2 [1],0.024 µg/mL
"ADC04 (hRS7 conjugated to CPD2) (antibody, human IgG1, kappa, V domains shown, linker-drug CPD2 on cysteines of reduced interchain disulfides; average DAR 3.92) VH: QVQLQQSGSELKKPGASVKVSCKASGYTFTNYGMNWVKQAPGQGLKWMGWINTYTGEPTYTDDFKGRFAFSLDTSVSTAYLQISSLKADDTAVYFCARGGFGSSYWYFDVWGQGSLVTVSS VL: DIQLTQSPSSLSASVGDRVSITCKASQDVSIAVAWYQQKPGKAPKLLIYSASYRYTGVPDRFSGSGSGTDFTLTISSLQPEDFAVYYCQQHYITPLTFGAGTKVEIKR",A431 IC50/µg/mL (in vitro cell viability assay),TROP2 [1],0.048 µg/mL
"hRS7-C8-D4 (antibody, human IgG1, kappa, V domains shown, linker-drug comp8 on cysteines of reduced interchain disulfides; DAR 3.52) VH: QVQLQQSGSELKKPGASVKVSCKASGYTFTNYGMNWVKQAPGQGLKWMGWINTYTGEPTYTDDFKGRFAFSLDTSVSTAYLQISSLKADDTAVYFCARGGFGSSYWYFDVWGQGSLVTVSS VL: DIQLTQSPSSLSASVGDRVSITCKASQDVSIAVAWYQQKPGKAPKLLIYSASYRYTGVPDRFSGSGSGTDFTLTISSLQPEDFAVYYCQQHYITPLTFGAGTKVEIKR","EC50(nM), inhibition of BxPC-3 cell proliferation",TROP2 [4],0.323 nM
same,"Relative activity (%), inhibition of BxPC-3 cell proliferation",TROP2 [4],97%
"hRS7-C9-D4 (antibody, human IgG1, kappa, V domains shown, linker-drug comp9 on cysteines of reduced interchain disulfides; DAR 3.54) VH: QVQLQQSGSELKKPGASVKVSCKASGYTFTNYGMNWVKQAPGQGLKWMGWINTYTGEPTYTDDFKGRFAFSLDTSVSTAYLQISSLKADDTAVYFCARGGFGSSYWYFDVWGQGSLVTVSS VL: DIQLTQSPSSLSASVGDRVSITCKASQDVSIAVAWYQQKPGKAPKLLIYSASYRYTGVPDRFSGSGSGTDFTLTISSLQPEDFAVYYCQQHYITPLTFGAGTKVEIKR","EC50(nM), inhibition of BxPC-3 cell proliferation",TROP2 [4],0.377 nM
same,"Relative activity (%), inhibition of BxPC-3 cell proliferation",TROP2 [4],108%
"hRS7-C7-D4 (antibody, human IgG1, kappa, V domains shown, linker-drug comp7 on cysteines of reduced interchain disulfides; DAR 3.56) VH: QVQLQQSGSELKKPGASVKVSCKASGYTFTNYGMNWVKQAPGQGLKWMGWINTYTGEPTYTDDFKGRFAFSLDTSVSTAYLQISSLKADDTAVYFCARGGFGSSYWYFDVWGQGSLVTVSS VL: DIQLTQSPSSLSASVGDRVSITCKASQDVSIAVAWYQQKPGKAPKLLIYSASYRYTGVPDRFSGSGSGTDFTLTISSLQPEDFAVYYCQQHYITPLTFGAGTKVEIKR","EC50(nM), inhibition of BxPC-3 cell proliferation",TROP2 [4],0.305 nM
same,"Relative activity (%), inhibition of BxPC-3 cell proliferation",TROP2 [4],103%
"hRS7-C6-D4 (antibody, human IgG1, kappa, V domains shown, linker-drug comp6 on cysteines of reduced interchain disulfides; DAR 3.49) VH: QVQLQQSGSELKKPGASVKVSCKASGYTFTNYGMNWVKQAPGQGLKWMGWINTYTGEPTYTDDFKGRFAFSLDTSVSTAYLQISSLKADDTAVYFCARGGFGSSYWYFDVWGQGSLVTVSS VL: DIQLTQSPSSLSASVGDRVSITCKASQDVSIAVAWYQQKPGKAPKLLIYSASYRYTGVPDRFSGSGSGTDFTLTISSLQPEDFAVYYCQQHYITPLTFGAGTKVEIKR","EC50(nM), inhibition of BxPC-3 cell proliferation",TROP2 [4],0.393 nM
same,"Relative activity (%), inhibition of BxPC-3 cell proliferation",TROP2 [4],80%
"ADC02 (hRS7 conjugated to GGFG-Dxd) (antibody, human IgG1, kappa, V domains shown, linker-drug GGFG-Dxd on cysteines of reduced interchain disulfides; average DAR 3.69) VH: QVQLQQSGSELKKPGASVKVSCKASGYTFTNYGMNWVKQAPGQGLKWMGWINTYTGEPTYTDDFKGRFAFSLDTSVSTAYLQISSLKADDTAVYFCARGGFGSSYWYFDVWGQGSLVTVSS VL: DIQLTQSPSSLSASVGDRVSITCKASQDVSIAVAWYQQKPGKAPKLLIYSASYRYTGVPDRFSGSGSGTDFTLTISSLQPEDFAVYYCQQHYITPLTFGAGTKVEIKR",A431 IC50/µg/mL (in vitro cell viability assay),TROP2 [1],0.057 µg/mL
"ADC03 (hRS7 conjugated to CPD1) (antibody, human IgG1, kappa, V domains shown, linker-drug CPD1 on cysteines of reduced interchain disulfides; average DAR 3.82) VH: QVQLQQSGSELKKPGASVKVSCKASGYTFTNYGMNWVKQAPGQGLKWMGWINTYTGEPTYTDDFKGRFAFSLDTSVSTAYLQISSLKADDTAVYFCARGGFGSSYWYFDVWGQGSLVTVSS VL: DIQLTQSPSSLSASVGDRVSITCKASQDVSIAVAWYQQKPGKAPKLLIYSASYRYTGVPDRFSGSGSGTDFTLTISSLQPEDFAVYYCQQHYITPLTFGAGTKVEIKR",A431 IC50/µg/mL (in vitro cell viability assay),TROP2 [1],0.074 µg/mL
"anti-BCMA-005-Hu178-CPD-D4 (antibody, human IgG1, kappa, V domains shown, linker-drug CPD1 on cysteines of reduced interchain disulfides; HIC-DAR 4.24) VH: EVQLVESGGGLVKPGGSLRLSCAASGFTFSNFDMAWVRQAPGKGLEWVASIVTRGDDTYYRDSVRGRFTISRDNAKNTQYLQMNSLRAEDTAVYYCARHDYGGPSGWFGYWGQGTLVTVSS VL: DIQMTQSPSSLSASVGDRVTITCRASQGFSNNLNWYQQKPGKTPKPLIYYTSNLHSGVPSRFSGSGSGTDYSLTISSLQPEDFATYYCQQDASFPPTFGQGTKLEIKR","EC50(nM), inhibition of MM.1S cell proliferation",BCMA [5],12.2 nM
"anti-BCMA-005-Hu178-glucoseMMAE-NC-D4 (antibody, human IgG1, kappa, V domains shown, Linker-MMAE derivative 1 on cysteines of reduced interchain disulfides; HIC-DAR 3.73) VH: EVQLVESGGGLVKPGGSLRLSCAASGFTFSNFDMAWVRQAPGKGLEWVASIVTRGDDTYYRDSVRGRFTISRDNAKNTQYLQMNSLRAEDTAVYYCARHDYGGPSGWFGYWGQGTLVTVSS VL: DIQMTQSPSSLSASVGDRVTITCRASQGFSNNLNWYQQKPGKTPKPLIYYTSNLHSGVPSRFSGSGSGTDYSLTISSLQPEDFATYYCQQDASFPPTFGQGTKLEIKR","EC50(nM), inhibition of MM.1S cell proliferation",BCMA [6],2.15 nM
same,"Relative activity (%), inhibition of MM.1S cell proliferation",BCMA [6],86.8%
"anti-BCMA-005-Hu178-vcMMAF-D4 (antibody, human IgG1, kappa, V domains shown, vc-MMAF on cysteines of reduced interchain disulfides; HIC-DAR 3.86) VH: EVQLVESGGGLVKPGGSLRLSCAASGFTFSNFDMAWVRQAPGKGLEWVASIVTRGDDTYYRDSVRGRFTISRDNAKNTQYLQMNSLRAEDTAVYYCARHDYGGPSGWFGYWGQGTLVTVSS VL: DIQMTQSPSSLSASVGDRVTITCRASQGFSNNLNWYQQKPGKTPKPLIYYTSNLHSGVPSRFSGSGSGTDYSLTISSLQPEDFATYYCQQDASFPPTFGQGTKLEIKR","EC50(nM), inhibition of MM.1S cell proliferation",BCMA [6],1.12 nM
same,"Relative activity (%), inhibition of MM.1S cell proliferation",BCMA [6],166%
"anti-BCMA-005-Hu178-OMeMMAE-D4 (antibody, human IgG1, kappa, V domains shown, Linker-MMAE derivative 2 on cysteines of reduced interchain disulfides; HIC-DAR 3.79) VH: EVQLVESGGGLVKPGGSLRLSCAASGFTFSNFDMAWVRQAPGKGLEWVASIVTRGDDTYYRDSVRGRFTISRDNAKNTQYLQMNSLRAEDTAVYYCARHDYGGPSGWFGYWGQGTLVTVSS VL: DIQMTQSPSSLSASVGDRVTITCRASQGFSNNLNWYQQKPGKTPKPLIYYTSNLHSGVPSRFSGSGSGTDYSLTISSLQPEDFATYYCQQDASFPPTFGQGTKLEIKR","EC50(nM), inhibition of MM.1S cell proliferation",BCMA [6],2.42 nM
same,"Relative activity (%), inhibition of MM.1S cell proliferation",BCMA [6],77.1%
"anti-BCMA-005-Hu178-vcMMAE-D4 (antibody, human IgG1, kappa, V domains shown, vc-MMAE on cysteines of reduced interchain disulfides; HIC-DAR 3.78) VH: EVQLVESGGGLVKPGGSLRLSCAASGFTFSNFDMAWVRQAPGKGLEWVASIVTRGDDTYYRDSVRGRFTISRDNAKNTQYLQMNSLRAEDTAVYYCARHDYGGPSGWFGYWGQGTLVTVSS VL: DIQMTQSPSSLSASVGDRVTITCRASQGFSNNLNWYQQKPGKTPKPLIYYTSNLHSGVPSRFSGSGSGTDYSLTISSLQPEDFATYYCQQDASFPPTFGQGTKLEIKR","EC50(nM), inhibition of MM.1S cell proliferation",BCMA [5],2.3 nM
same,"EC50(nM), inhibition of MM.1S cell proliferation",BCMA [6],1.87 nM
same,"Relative activity (%), inhibition of MM.1S cell proliferation",BCMA [6],100%
"anti-BCMA-005-Hu178-CPD-D8 (antibody, human IgG1, kappa, V domains shown, linker-drug CPD1 on cysteines of reduced interchain disulfides; HIC-DAR 7.73) VH: EVQLVESGGGLVKPGGSLRLSCAASGFTFSNFDMAWVRQAPGKGLEWVASIVTRGDDTYYRDSVRGRFTISRDNAKNTQYLQMNSLRAEDTAVYYCARHDYGGPSGWFGYWGQGTLVTVSS VL: DIQMTQSPSSLSASVGDRVTITCRASQGFSNNLNWYQQKPGKTPKPLIYYTSNLHSGVPSRFSGSGSGTDYSLTISSLQPEDFATYYCQQDASFPPTFGQGTKLEIKR","EC50(nM), inhibition of MM.1S cell proliferation",BCMA [5],4.56 nM

# From patent publication EP4588489A1, “LINKER FOR ANTIBODY-DRUG CONJUGATE AND USE THEREOF” (priority 2022, dated 2024)
